Experimental data reported in paper PMC3962391, “Cation Diffusion Facilitators Transport Initiation and Regulation Is Mediated by Cation Induced Conformational Changes of the Cytoplasmic Domain” (PLoS ONE, 2014).
Numbering of substitutions follows the chain as printed. Names and notes keep the numbering of the source.

B1: C-terminal truncation MamM-CTD mutant (residues 215-293) (domain or fragment, Magnetospirillum gryphiswaldense MSR-1, UniProt V6F235 215-293, looked up)
chain: EAVQNRIVEAAERVPGVRGVIHLRARYVGQDIWADMIIGVDPENTVEQAHEICEAVQAAVCGKIRRIESLHVSAEAREI
notes: MamM, Magnetospirillum gryphiswaldense MSR-1; source: purified
B2: MamM-CTD (residues 215-318) (domain or fragment, Magnetospirillum gryphiswaldense MSR-1, UniProt V6F235 215-318, looked up)
chain: EAVQNRIVEAAERVPGVRGVIHLRARYVGQDIWADMIIGVDPENTVEQAHEICEAVQAAVCGKIRRIESLHVSAEAREIGDTTKPSFSDQPLSFDEVMLSKVDN
notes: MamM, cation diffusion facilitator of the magnetosome membrane, Magnetospirillum gryphiswaldense MSR-1; Uniformly 13C,15N labelled for the solid-state NMR; also called apo-MamM-CTD; source: purified
B3: MamM-CTD V260P (domain or fragment, Magnetospirillum gryphiswaldense MSR-1, UniProt V6F235 215-318, looked up)
chain: B2 chain with V46P
notes: MamM, Magnetospirillum gryphiswaldense MSR-1; also called V260P MamM-CTD mutant; recombinant MamM-CTD V260P; source: recombinant

Target: the molecule itself
Assay: SEC; Superdex200; apo proteins; elution volume against a calibration curve of marker proteins

Stoichiometry N, 2:
B1
B2
B3
